Non-standard residues stand in square brackets, D forms with d. Primed or numbered codes have the meaning given here. No end group written: not given here. Me2a″ = asymmetric dimethylarginine (Rme2a); Arg(Me2a) = CN(C)C(=N)NCCC[C@H](N)C(=O)O; Lys(Me3) = C[N+](C)(C)CCCC[C@H](N)C(=O)O; Arg(Me2s) = CN=C(NC)NCCC[C@H](N)C(=O)O; pT = C[C@@H](OP(=O)(O)O)[C@H](N)C(=O)O; Me2a = asymmetric dimethyl (on Arg); Lys(Me2) = CN(C)CCCC[C@H](N)C(=O)O; pS = N[C@@H](COP(=O)(O)O)C(=O)O; Lys(Me) = CNCCCC[C@H](N)C(=O)O; Me3″ = trimethyl lysine (Kme3)
B1: H4 1-19 (peptide)
chain: SGRGKGGKGLGKGGAKRHR
modifications: histone peptides carry modifications given inline in the sequence and in columns 4-7 (Kac, Kme1/2/3, Rme2a/s, Cit, pS/pT); N-terminus free or acetylated

Biological target: T1, Bdf1 bromodomain 2 (GST-tagged, WT) (Saccharomyces cerevisiae (strain ATCC …, UniProt P35817))
T1 chain: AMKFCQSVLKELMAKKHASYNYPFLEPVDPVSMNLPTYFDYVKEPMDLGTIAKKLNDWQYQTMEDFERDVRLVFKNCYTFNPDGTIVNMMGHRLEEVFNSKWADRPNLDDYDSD
Test: histone peptide array probed with recombinant GST-bromodomain, signal normalised to myc peptide control

Binder	binding score
ARTKQTARKSTGGKAPRKQ (A R T K Q T A Rme2a K S T G G K A P R K Q)	0
PRKQLATKAAR[Lys(Me3)][pS]APATGG	0
ARTKQTARKSTGGKAPRKQ (A R T Kac Q T A Rme2a Kme1 S T G G K A P R K Q)	0.00423
ARTKQTA[Arg(Me2a)]K[pS]TGGKAPRKQ	0
PRKQLATKAA[Arg(Me2a)][Lys(Me2)]SAPATGG	0
SGRGKGGKGLGKGGAKRHR (S G R G K G G Kac G L G K G G A K R H R)	0.0237
B1	0
AR[pT][Lys(Me2)]QTARKSTGGKAPRKQ	0.00895
PRKQLATKAA[Arg(Me2a)]K[pS]APATGG	0
ARTKQTA[Arg(Me2s)][Lys(Me2)]S[pT]GGKAPRKQ	0.00915
ARTKQTARKSTGGKAPRKQ (A R T Kac Q T A Rme2s Kme3 S T G G K A P R K Q)	0.00482
ARTKQTARKSTGGKAPRKQ (A Rme2s T Kme3 Q T A Rme2s Kac S T G G K A P R K Q)	0.0385
A[Arg(Me2s)]T[Lys(Me3)]QTA[Arg(Me2s)][Lys(Me3)]STGGKAPRKQ	0
ARTKQTARKSTGGKAPRKQ (A Rme2a T Kme1 Q T A R Kme2 S T G G K A P R K Q)	0.0062
PRKQLATKAARK(Ac)SAPATGG	0.00915
ARTKQTARKSTGGKAPRKQ (A Rme2s pT Kme2 Q T A R K S T G G K A P R K Q)	0
AR[pT]K(Me)QTARKSTGGKAPRKQ	0.00679
ARTKQTARKSTGGKAPRKQ (A R T K Q T A R Kac S T G G K A P R K Q)	0.00364
ARTKQTARKSTGGKAPRKQ (A Rme2a T Kme2 Q T A Rme2a Kme1 S T G G K A P R K Q)	0
SGRGKGGKGLGKGGAKRHR (S G Rme2a G K G G Kac G L G K G G A K R H R)	0.0345
A[Arg(Me2s)]T[Lys(Me3)]QTA[Arg(Me2a)][Lys(Me2)]STGGKAPRKQ	0
ARTKQTARKSTGGKAPRKQ (A Rme2a T Kme1 Q T A Rme2a Kme3 S T G G K A P R K Q)	0.00285

Binder	binding score
ARTKQTARKSTGGKAPRKQ (A R T Kme2 Q T A R K S T G G K A P R K Q)	0.006
ARTKQTARKSTGGKAPRKQ (A R T Kme1 Q T A Rme2s Kac S T G G K A P R K Q)	0.0265
RKSAPATGGVKKPHRYRPG (R K S A P A T G G V Kme2 K P H R Y R P G) [H3 26-45]	0
ARTKQTARKSTGGKAPRKQ (A R T Kme2 Q T A Rme2s Kme3 S T G G K A P R K Q)	0
A[Arg(Me2a)]TKQTARKSTGGKAPRKQ	0.00462
SGRGKGGKGLGKGGAKRHR (S G Rme2s G Kac G G Kac G L G K G G A K R H R)	0.275
ARTKQTARKSTGGKAPRKQ (A Rme2a T Kme3 Q T A Rme2a Kme1 S T G G K A P R K Q)	0
ARTKQTARKSTGGKAPRKQ (A R T Kme1 Q T A Rme2s Kme2 S T G G K A P R K Q)	0.00364
ARTKQTARKSTGGKAPRKQ (A Rme2s T Kme1 Q T A Rme2a Kme3 S T G G K A P R K Q)	0
SGRGKGGKGLGKGGAKRHR (S G R G Kac G G Kac G L G Kac G G A Kac R H R)	0.944
ARTKQTA[Arg(Me2a)][Lys(Me3)][pS]TGGKAPRKQ	0
A[Arg(Me2a)]T[Lys(Me)]QTARK(Ac)STGGKAPRKQ	0.00207
A[Arg(Me2s)]T[Lys(Me3)]QTAR[Lys(Me)]STGGKAPRKQ	0.00895
ART[Lys(Me3)]QTA[Arg(Me2s)][Lys(Me2)]STGGKAPRKQ	0.00561
PRKQLATKAAR(Me2a″)K(Me3″)SAPATGG	0.00167
SGRGKGGKGLGKGGAKRHR (S G R G K G G K G L G Kac G G A Kac R H R)	0.21
ARTKQTAR(Me2a)K(Me)STGGKAPRKQ	0
ARTKQTARKSTGGKAPRKQ (A Rme2s T Kac Q T A Rme2s Kme3 S T G G K A P R K Q)	0.00521
A[Arg(Me2s)][pT]K(Ac)QTARKSTGGKAPRKQ	0.0206
A[Arg(Me2s)][pT]KQTARKSTGGKAPRKQ	0.00502
ARTKQTA[Arg(Me2a)]KS[pT]GGKAPRKQ	0
SGRGKGGKGLGKGGAKRHR (S G Rme2a G K G G K G L G K G G A K R H R)	0.00305

Biological target: T2, Bdf1 bromodomain 1 (GST-tagged, WT) (Saccharomyces cerevisiae (strain ATCC …, UniProt P35817))
T2 chain: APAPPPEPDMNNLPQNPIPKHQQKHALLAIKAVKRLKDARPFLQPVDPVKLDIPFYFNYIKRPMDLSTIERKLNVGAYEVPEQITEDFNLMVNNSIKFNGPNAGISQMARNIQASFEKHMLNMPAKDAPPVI
Test: as above

Binder	binding score
ARTKQTARKSTGGKAPRKQ (A R T K Q T A Rme2a K S T G G K A P R K Q)	0
PRKQLATKAAR[Lys(Me3)][pS]APATGG	0
ARTKQTARKSTGGKAPRKQ (A R T Kac Q T A Rme2a Kme1 S T G G K A P R K Q)	0.00323
PRKQLATKAA[Arg(Me2a)][Lys(Me2)]SAPATGG	0.00789
SGRGKGGKGLGKGGAKRHR (S G R G K G G Kac G L G K G G A K R H R)	0.0203
B1	0.00897
AR[pT][Lys(Me2)]QTARKSTGGKAPRKQ	0.00161
PRKQLATKAA[Arg(Me2a)]K[pS]APATGG	0
ARTKQTA[Arg(Me2s)][Lys(Me2)]S[pT]GGKAPRKQ	0.0052
ARTKQTARKSTGGKAPRKQ (A R T Kac Q T A Rme2s Kme3 S T G G K A P R K Q)	0.00287
ARTKQTARKSTGGKAPRKQ (A Rme2s T Kme3 Q T A Rme2s Kac S T G G K A P R K Q)	0.0104
A[Arg(Me2s)]T[Lys(Me3)]QTA[Arg(Me2s)][Lys(Me3)]STGGKAPRKQ	0.00789
ARTKQTARKSTGGKAPRKQ (A Rme2a T Kme1 Q T A R Kme2 S T G G K A P R K Q)	0.00538
PRKQLATKAARK(Ac)SAPATGG	0
ARTKQTARKSTGGKAPRKQ (A Rme2s pT Kme2 Q T A R K S T G G K A P R K Q)	0
AR[pT]K(Me)QTARKSTGGKAPRKQ	0
ARTKQTARKSTGGKAPRKQ (A R T K Q T A R Kac S T G G K A P R K Q)	0.000897
ARTKQTARKSTGGKAPRKQ (A Rme2a T Kme2 Q T A Rme2a Kme1 S T G G K A P R K Q)	0.00897
SGRGKGGKGLGKGGAKRHR (S G Rme2a G K G G Kac G L G K G G A K R H R)	0.0183
A[Arg(Me2s)]T[Lys(Me3)]QTA[Arg(Me2a)][Lys(Me2)]STGGKAPRKQ	0.00197
ARTKQTARKSTGGKAPRKQ (A Rme2a T Kme1 Q T A Rme2a Kme3 S T G G K A P R K Q)	0.00197

Binder	binding score
ARTKQTARKSTGGKAPRKQ (A R T Kme2 Q T A R K S T G G K A P R K Q)	0
ARTKQTARKSTGGKAPRKQ (A R T Kme1 Q T A Rme2s Kac S T G G K A P R K Q)	0.0247
RKSAPATGGVKKPHRYRPG (R K S A P A T G G V Kme2 K P H R Y R P G) [H3 26-45]	0
ARTKQTARKSTGGKAPRKQ (A R T Kme2 Q T A Rme2s Kme3 S T G G K A P R K Q)	0.00592
A[Arg(Me2a)]TKQTARKSTGGKAPRKQ	0.0095
SGRGKGGKGLGKGGAKRHR (S G Rme2s G Kac G G Kac G L G K G G A K R H R)	0.123
ARTKQTARKSTGGKAPRKQ (A Rme2a T Kme3 Q T A Rme2a Kme1 S T G G K A P R K Q)	0
ARTKQTARKSTGGKAPRKQ (A R T Kme1 Q T A Rme2s Kme2 S T G G K A P R K Q)	0.00879
ARTKQTARKSTGGKAPRKQ (A Rme2s T Kme1 Q T A Rme2a Kme3 S T G G K A P R K Q)	0.00628
SGRGKGGKGLGKGGAKRHR (S G R G Kac G G Kac G L G Kac G G A Kac R H R)	0.561
A[Arg(Me2a)][pT]KQTARKSTGGKAPRKQ	0
ARTKQTA[Arg(Me2a)][Lys(Me3)][pS]TGGKAPRKQ	0
A[Arg(Me2a)]T[Lys(Me)]QTARK(Ac)STGGKAPRKQ	0.00699
A[Arg(Me2s)]T[Lys(Me3)]QTAR[Lys(Me)]STGGKAPRKQ	0
ART[Lys(Me3)]QTA[Arg(Me2s)][Lys(Me2)]STGGKAPRKQ	0.00628
PRKQLATKAAR(Me2a″)K(Me3″)SAPATGG	0
SGRGKGGKGLGKGGAKRHR (S G R G K G G K G L G Kac G G A Kac R H R)	0.206
ARTKQTARKSTGGKAPRKQ (A Rme2s T Kac Q T A Rme2s Kme3 S T G G K A P R K Q)	0.00538
A[Arg(Me2s)][pT]K(Ac)QTARKSTGGKAPRKQ	0.0231
A[Arg(Me2s)][pT]KQTARKSTGGKAPRKQ	0
SGRGKGGKGLGKGGAKRHR (S G Rme2a G K G G K G L G K G G A K R H R)	0.0247

Reference: PMC5261807 (2017)
